Tests used:
Experiment in all cases: SPR
GST-Htt-20Q = target: T1, GST-Htt-20Q
T1 chain: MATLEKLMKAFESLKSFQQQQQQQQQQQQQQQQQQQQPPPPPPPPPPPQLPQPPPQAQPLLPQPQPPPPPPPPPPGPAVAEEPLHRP

GST-Atxn1-33Q = target: T2, GST-Atxn1-33Q (UniProt P54253 1-815)
T2 chain: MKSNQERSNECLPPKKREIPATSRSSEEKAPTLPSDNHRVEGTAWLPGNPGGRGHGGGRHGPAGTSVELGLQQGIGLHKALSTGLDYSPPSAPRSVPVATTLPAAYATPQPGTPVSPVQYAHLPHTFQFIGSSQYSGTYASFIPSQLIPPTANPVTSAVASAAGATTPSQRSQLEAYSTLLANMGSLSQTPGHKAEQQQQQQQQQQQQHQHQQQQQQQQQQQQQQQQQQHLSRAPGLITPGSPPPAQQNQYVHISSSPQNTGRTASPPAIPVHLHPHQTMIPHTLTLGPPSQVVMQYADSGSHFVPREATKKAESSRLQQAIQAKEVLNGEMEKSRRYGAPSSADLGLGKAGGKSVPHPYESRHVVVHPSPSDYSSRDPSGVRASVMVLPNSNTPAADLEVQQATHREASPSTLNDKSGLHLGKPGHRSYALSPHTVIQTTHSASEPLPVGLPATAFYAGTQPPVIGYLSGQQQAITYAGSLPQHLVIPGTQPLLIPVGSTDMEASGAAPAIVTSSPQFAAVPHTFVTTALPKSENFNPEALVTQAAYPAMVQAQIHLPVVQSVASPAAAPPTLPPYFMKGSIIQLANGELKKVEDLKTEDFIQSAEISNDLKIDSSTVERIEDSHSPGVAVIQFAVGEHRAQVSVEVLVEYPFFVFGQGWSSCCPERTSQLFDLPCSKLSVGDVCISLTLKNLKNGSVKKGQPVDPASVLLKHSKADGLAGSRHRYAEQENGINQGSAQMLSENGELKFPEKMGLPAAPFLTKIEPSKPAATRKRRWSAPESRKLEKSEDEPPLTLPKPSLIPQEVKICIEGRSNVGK

GST-Atxn1-86Q = target: T3, GST-Atxn1-86Q (UniProt P54253 1-815)
T3 chain: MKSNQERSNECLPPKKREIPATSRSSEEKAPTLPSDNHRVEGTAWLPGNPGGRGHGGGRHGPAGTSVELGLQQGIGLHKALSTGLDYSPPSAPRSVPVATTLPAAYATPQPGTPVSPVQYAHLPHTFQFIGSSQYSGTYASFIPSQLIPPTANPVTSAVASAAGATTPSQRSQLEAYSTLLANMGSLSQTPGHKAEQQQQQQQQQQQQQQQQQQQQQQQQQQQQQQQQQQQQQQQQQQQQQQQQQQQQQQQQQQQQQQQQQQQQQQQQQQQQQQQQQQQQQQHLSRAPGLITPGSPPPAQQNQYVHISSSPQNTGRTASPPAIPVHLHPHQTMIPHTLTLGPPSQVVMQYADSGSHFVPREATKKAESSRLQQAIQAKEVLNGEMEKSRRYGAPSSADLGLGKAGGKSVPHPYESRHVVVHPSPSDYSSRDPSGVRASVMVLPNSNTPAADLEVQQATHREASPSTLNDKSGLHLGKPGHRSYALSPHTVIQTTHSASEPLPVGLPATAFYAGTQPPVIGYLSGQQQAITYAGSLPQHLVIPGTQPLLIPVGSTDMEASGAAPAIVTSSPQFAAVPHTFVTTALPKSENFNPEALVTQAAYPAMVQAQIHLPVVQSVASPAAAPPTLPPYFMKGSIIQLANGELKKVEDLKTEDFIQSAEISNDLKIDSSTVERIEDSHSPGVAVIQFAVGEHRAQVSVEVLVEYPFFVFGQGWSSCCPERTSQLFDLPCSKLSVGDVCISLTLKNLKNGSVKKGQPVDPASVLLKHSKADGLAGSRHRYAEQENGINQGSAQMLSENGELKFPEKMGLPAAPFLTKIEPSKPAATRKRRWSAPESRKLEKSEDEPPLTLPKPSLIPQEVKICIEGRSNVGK

Binder	Kd (GST-Htt-20Q)	Kd (GST-Atxn1-33Q)	Kd (GST-Atxn1-86Q)
PQBP5-Δ1 (protein, Delta number assigned from the order of the constructs in the methods; initiator Met from the primer and tag omitted. Exon 1 ends at ...LHRP, which agrees with the printed Htt reverse primer. The entry carries 21Q (18-38); one Q is removed to give the 20Q of the assayed protein name. The plasmid is called 17Q, so the repeat count is ambiguous. GST omitted.) TYQLSLKFERCLDSEVVTFEILSDDYSKIVFLHNDRYIEFHSQSGFYYKTRIPKFGRDFSYHYPSCDLYFVGASSEVYRLNLEQGRYLNPLQTDAAENNVCDINSVHGLFATGTIEGRVECWDPRTRNRVGLLDCALNSVTADSEINSLPTISALKFNGALTMAVGTTTGQVLLYDLRSDKPLLVKDHQYGLPIKSVHFQDSLDLILSADSRIVKMWNKNSGKIFTSLEPEHDLNDVCLYPNSGMLLTANETPKMGIYYIPVLGPAPRWCSFLDNLTEELEENPESTVYDDYKFVTKKDLENLGLTHLIGSPFLRAYMHGFFMDIRLYHKVKLMVNPFAYEEYRKDKIRQKIEETRAQRVQLKKLPKVNKELALKLIEEEEEKQKSTWKKKVKSLPNILTDDRFKVMFENPDFQVDEESEEFRLLNPLVSKISEKRKKKLRLLEQQELREKEEEEEPEGKPSDAESSESSDDEKAWVEEVRKQRRLLQQEEKVKRQERLKEDQQTVLKPQFYEIKAGEEFRSFKDSATKQKLMNKTLEDRLKIEAKNGTLSVSDTTVGSKQLTFTLKRSEQQKKQQEAEKLHRQERKRLRRSAGHLKSRHKRGRSFH	2.67 nM		
PQBP5-Δ2 (protein, Delta number assigned from the order of the constructs in the methods; initiator Met from the primer and tag omitted.) PRTRNRVGLLDCALNSVTADSEINSLPTISALKFNGALTMAVGTTTGQVLLYDLRSDKPLLVKDHQYGLPIKSVHFQDSLDLILSADSRIVKMWNKNSGKIFTSLEPEHDLNDVCLYPNSGMLLTANETPKMGIYYIPVLGPAPRWCSFLDNLTEELEENPESTVYDDYKFVTKKDLENLGLTHLIGSPFLRAYMHGFFMDIRLYHKVKLMVNPFAYEEYRKDKIRQKIEETRAQRVQLKKLPKVNKELALKLIEEEEEKQKSTWKKKVKSLPNILTDDRFKVMFENPDFQVDEESEEFRLLNPLVSKISEKRKKKLRLLEQQELREKEEEEEPEGKPSDAESSESSDDEKAWVEEVRKQRRLLQQEEKVKRQERLKEDQQTVLKPQFYEIKAGEEFRSFKDSATKQKLMNKTLEDRLKIEAKNGTLSVSDTTVGSKQLTFTLKRSEQQKKQQEAEKLHRQERKRLRRSAGHLKSRHKRGRSFH		830 nM	183 nM
PQBP5-Δ2 (protein, Delta number assigned from the order of the constructs in the methods; initiator Met from the primer and tag omitted. Exon 1 ends at ...LHRP, which agrees with the printed Htt reverse primer. The entry carries 21Q (18-38); one Q is removed to give the 20Q of the assayed protein name. The plasmid is called 17Q, so the repeat count is ambiguous. GST omitted.) PRTRNRVGLLDCALNSVTADSEINSLPTISALKFNGALTMAVGTTTGQVLLYDLRSDKPLLVKDHQYGLPIKSVHFQDSLDLILSADSRIVKMWNKNSGKIFTSLEPEHDLNDVCLYPNSGMLLTANETPKMGIYYIPVLGPAPRWCSFLDNLTEELEENPESTVYDDYKFVTKKDLENLGLTHLIGSPFLRAYMHGFFMDIRLYHKVKLMVNPFAYEEYRKDKIRQKIEETRAQRVQLKKLPKVNKELALKLIEEEEEKQKSTWKKKVKSLPNILTDDRFKVMFENPDFQVDEESEEFRLLNPLVSKISEKRKKKLRLLEQQELREKEEEEEPEGKPSDAESSESSDDEKAWVEEVRKQRRLLQQEEKVKRQERLKEDQQTVLKPQFYEIKAGEEFRSFKDSATKQKLMNKTLEDRLKIEAKNGTLSVSDTTVGSKQLTFTLKRSEQQKKQQEAEKLHRQERKRLRRSAGHLKSRHKRGRSFH	463 nM		
PQBP5-Δ3 (protein, Delta number assigned from the order of the constructs in the methods; initiator Met from the primer and tag omitted.) IPVLGPAPRWCSFLDNLTEELEENPESTVYDDYKFVTKKDLENLGLTHLIGSPFLRAYMHGFFMDIRLYHKVKLMVNPFAYEEYRKDKIRQKIEETRAQRVQLKKLPKVNKELALKLIEEEEEKQKSTWKKKVKSLPNILTDDRFKVMFENPDFQVDEESEEFRLLNPLVSKISEKRKKKLRLLEQQELREKEEEEEPEGKPSDAESSESSDDEKAWVEEVRKQRRLLQQEEKVKRQERLKEDQQTVLKPQFYEIKAGEEFRSFKDSATKQKLMNKTLEDRLKIEAKNGTLSVSDTTVGSKQLTFTLKRSEQQKKQQEAEKLHRQERKRLRRSAGHLKSRHKRGRSFH		255 nM	
PQBP5-Δ3 (protein, Delta number assigned from the order of the constructs in the methods; initiator Met from the primer and tag omitted. Exon 1 ends at ...LHRP, which agrees with the printed Htt reverse primer. The entry carries 21Q (18-38); one Q is removed to give the 20Q of the assayed protein name. The plasmid is called 17Q, so the repeat count is ambiguous. GST omitted.) IPVLGPAPRWCSFLDNLTEELEENPESTVYDDYKFVTKKDLENLGLTHLIGSPFLRAYMHGFFMDIRLYHKVKLMVNPFAYEEYRKDKIRQKIEETRAQRVQLKKLPKVNKELALKLIEEEEEKQKSTWKKKVKSLPNILTDDRFKVMFENPDFQVDEESEEFRLLNPLVSKISEKRKKKLRLLEQQELREKEEEEEPEGKPSDAESSESSDDEKAWVEEVRKQRRLLQQEEKVKRQERLKEDQQTVLKPQFYEIKAGEEFRSFKDSATKQKLMNKTLEDRLKIEAKNGTLSVSDTTVGSKQLTFTLKRSEQQKKQQEAEKLHRQERKRLRRSAGHLKSRHKRGRSFH	402 nM		
full-length human PQBP5 (His-tag fusion protein) (natural protein, Exon 1 ends at ...LHRP, which agrees with the printed Htt reverse primer. The entry carries 21Q (18-38); one Q is removed to give the 20Q of the assayed protein name. The plasmid is called 17Q, so the repeat count is ambiguous. GST omitted.) MQVSSLNEVKIYSLSCGKSLPEWLSDRKKRALQKKDVDVRRRIELIQDFEMPTVCTTIKVSKDGQYILATGTYKPRVRCYDTYQLSLKFERCLDSEVVTFEILSDDYSKIVFLHNDRYIEFHSQSGFYYKTRIPKFGRDFSYHYPSCDLYFVGASSEVYRLNLEQGRYLNPLQTDAAENNVCDINSVHGLFATGTIEGRVECWDPRTRNRVGLLDCALNSVTADSEINSLPTISALKFNGALTMAVGTTTGQVLLYDLRSDKPLLVKDHQYGLPIKSVHFQDSLDLILSADSRIVKMWNKNSGKIFTSLEPEHDLNDVCLYPNSGMLLTANETPKMGIYYIPVLGPAPRWCSFLDNLTEELEENPESTVYDDYKFVTKKDLENLGLTHLIGSPFLRAYMHGFFMDIRLYHKVKLMVNPFAYEEYRKDKIRQKIEETRAQRVQLKKLPKVNKELALKLIEEEEEKQKSTWKKKVKSLPNILTDDRFKVMFENPDFQVDEESEEFRLLNPLVSKISEKRKKKLRLLEQQELREKEEEEEPEGKPSDAESSESSDDEKAWVEEVRKQRRLLQQEEKVKRQERLKEDQQTVLKPQFYEIKAGEEFRSFKDSATKQKLMNKTLEDRLKIEAKNGTLSVSDTTVGSKQLTFTLKRSEQQKKQQEAEKLHRQERKRLRRSAGHLKSRHKRGRSFH	0.0308 nM		
PQBP5-Δ5 (protein, Delta number assigned from the order of the constructs in the methods (fifth: 1-481, lacking NUC153); tag omitted.) MQVSSLNEVKIYSLSCGKSLPEWLSDRKKRALQKKDVDVRRRIELIQDFEMPTVCTTIKVSKDGQYILATGTYKPRVRCYDTYQLSLKFERCLDSEVVTFEILSDDYSKIVFLHNDRYIEFHSQSGFYYKTRIPKFGRDFSYHYPSCDLYFVGASSEVYRLNLEQGRYLNPLQTDAAENNVCDINSVHGLFATGTIEGRVECWDPRTRNRVGLLDCALNSVTADSEINSLPTISALKFNGALTMAVGTTTGQVLLYDLRSDKPLLVKDHQYGLPIKSVHFQDSLDLILSADSRIVKMWNKNSGKIFTSLEPEHDLNDVCLYPNSGMLLTANETPKMGIYYIPVLGPAPRWCSFLDNLTEELEENPESTVYDDYKFVTKKDLENLGLTHLIGSPFLRAYMHGFFMDIRLYHKVKLMVNPFAYEEYRKDKIRQKIEETRAQRVQLKKLPKVNKELALKLIEEEEEKQKSTWKKKVKSLPNILT		0.194 nM	0.128 nM
PQBP5-Δ5 (protein, Delta number assigned from the order of the constructs in the methods (fifth: 1-481, lacking NUC153); tag omitted. Exon 1 ends at ...LHRP, which agrees with the printed Htt reverse primer. The entry carries 21Q (18-38); one Q is removed to give the 20Q of the assayed protein name. The plasmid is called 17Q, so the repeat count is ambiguous. GST omitted.) MQVSSLNEVKIYSLSCGKSLPEWLSDRKKRALQKKDVDVRRRIELIQDFEMPTVCTTIKVSKDGQYILATGTYKPRVRCYDTYQLSLKFERCLDSEVVTFEILSDDYSKIVFLHNDRYIEFHSQSGFYYKTRIPKFGRDFSYHYPSCDLYFVGASSEVYRLNLEQGRYLNPLQTDAAENNVCDINSVHGLFATGTIEGRVECWDPRTRNRVGLLDCALNSVTADSEINSLPTISALKFNGALTMAVGTTTGQVLLYDLRSDKPLLVKDHQYGLPIKSVHFQDSLDLILSADSRIVKMWNKNSGKIFTSLEPEHDLNDVCLYPNSGMLLTANETPKMGIYYIPVLGPAPRWCSFLDNLTEELEENPESTVYDDYKFVTKKDLENLGLTHLIGSPFLRAYMHGFFMDIRLYHKVKLMVNPFAYEEYRKDKIRQKIEETRAQRVQLKKLPKVNKELALKLIEEEEEKQKSTWKKKVKSLPNILT	0.354 nM		
